This is an account of results in patent US20260000597A1 (priority 2018, published 2026).

This test concerns the target AchR (Homo sapiens, UniProt P02708). Kind of test: ELISA of screened peptide phages on AchR versus streptavidin (OD450). The test is classed as binding. The following applies: absorbance at 450 nm. How it is done:
The output phages for the 4th and 5th rounds of biopanning in Example 13-1 were inoculated to E. coli, and plated on the agar plates so as to form 100-200 plaques per plate. The plaques were inoculated on 1 ml of an SB liquid medium containing 50 μg/ml of ampicillin by using a sterile tip, and cultured with shaking at 37° C. for 5 hours, followed by the addition of 30 μl of helper phages, and then cultured at 37° C. and 200 rpm for one day. The culture was centrifuged at 12,000 rpm for 2 minutes to collect supernatant, and 2% BSA was added to the supernatant, and used for phage screening.
In a 96-well ELISA plate, 5 μg/ml AchR or streptavidin was added at 50 μl per well, and left at 4° C. overnight. The next day, the solution in each well was discarded, followed by the addition of 2% BSA, and then blocked at room temperature for 2 hours. After the solution was all discarded, the wells were washed three times with Tris (20 mM, pH7). In addition, 100 μl of each of the phage solutions obtained from the above-prepared plaques was dispensed into wells and left at 30° C. for 1 hour. After the solution in the wells was all discarded, the wells were washed three times with Tris (20 mM, pH 7), and then the HRP-conjugated anti-M13 antibody diluted 1:2,000 was added at 100 μl per well, followed by culture at 30° C. for 1 hour. After the wells were washed three times with Tris (20 mM, pH7), 100 μl of tetramethylbenzidine was added to each well to induce a color development reaction, and then the reaction was stopped by the addition of 100 μl of 1M H2SO4, and the absorbance at 450 nm (OD450) was measured. The measured absorbance was converted into a ratio of AchR absorbance to streptavidin absorbance (AchR signal/streptavidin signal), and the results are shown in FIGS. 14 to 16.

Setting [1] is: ELISA of selected 14-mer (L3) peptide phages on AchR, Spep-2 positive control.
Setting [2] is: phage ELISA, 5 μg/ml AchR, 4th and 5th round biopanning phages.
Where [3] appears, read: ELISA of selected 11-mer (L2) peptide phages on AchR, Spep-2 positive control.

Chain of AchR (P02708 21-457): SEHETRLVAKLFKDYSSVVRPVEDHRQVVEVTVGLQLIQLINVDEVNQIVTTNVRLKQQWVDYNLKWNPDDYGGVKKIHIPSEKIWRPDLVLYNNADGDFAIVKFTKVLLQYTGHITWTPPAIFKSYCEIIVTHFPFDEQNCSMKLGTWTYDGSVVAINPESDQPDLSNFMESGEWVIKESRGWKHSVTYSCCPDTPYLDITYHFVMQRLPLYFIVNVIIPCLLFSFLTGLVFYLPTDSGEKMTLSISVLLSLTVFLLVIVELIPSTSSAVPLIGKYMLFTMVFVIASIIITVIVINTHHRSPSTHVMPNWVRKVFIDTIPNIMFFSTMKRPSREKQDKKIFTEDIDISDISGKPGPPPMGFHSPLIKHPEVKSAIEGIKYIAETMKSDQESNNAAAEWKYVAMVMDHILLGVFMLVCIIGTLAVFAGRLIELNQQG

Under setting [1], “L3-143 (QTMKFKRCCNKEMV; AchR binding peptide) [Peptide L3-143]” gave an OD of 0.559. As for KRRRFRWK [Peptide L1-40], under setting [2], the OD worked out at 0.424.

The substance KQKKTGFR [Peptide L1-55] returned an OD under setting [2] of 0.585.

As for RIKRDYCK [Peptide L1-164], the OD under setting [2] turned out to be 0.616. The substance “L2-120 (PAARTKRMYGR; AchR binding peptide) [Peptide L2-120]” yielded an OD under setting [3] of 0.607.

Turning to “L2-108 (QQDRPKRDIPK; AchR binding peptide) [Peptide L2-108]”, under setting [3], the OD turned out to be 0.716. As to RPKKWMQK [Peptide L1-61], the OD under setting [2] was found to be 0.625. For “L3-139 (FHHRHKRIATKHPA; AchR binding peptide) [Peptide L3-139]”, the OD under setting [1] is given as 0.49. As for “L3-87 (FLEKCRKFIIRVST; AchR binding peptide) [Peptide L3-87]”, the OD under setting [1] amounted to 0.743. Consider “L3-105 (YYEKIRRGEIKIAE; AchR binding peptide) [Peptide L3-105]”, for which the OD under setting [1] came to 0.601. Take “L2-189 (AHIKSRKVWSR; AchR binding peptide) [Peptide L2-189]”: the OD under setting [3] is 0.696.

“L3-4 (MPQKLKKLDIRNHN; AchR binding peptide) [Peptide L3-4]” gave an OD under setting [1] of 0.905. The same measure, in the same setting: the same measure for “L3-169 (FHMKSKKDGDKFVM; AchR binding peptide) [Peptide L3-169]”: 0.783.

RYKKVPAK [Peptide L1-118] registered an OD under setting [2] of 0.471. The same measure, in the same setting: then KERKGAVR [Peptide L1-100], with 0.737; and RFRRNFHK [Peptide L1-196], with 0.583.

“L3-185 (VLPKERRWLTRFLI; AchR binding peptide) [Peptide L3-185]” returned an OD under setting [1] of 0.794.

Take “L3-16 (DYLRSRKMEERFQE; AchR binding peptide) [Peptide L3-16]”: the OD under setting [1] amounted to 0.797.

In turn, “L3-186 (YEHRHKRFFHKDMP; AchR binding peptide) [Peptide L3-186]” showed an OD under setting [1] of 0.799. Regarding “L2-47 (IEDKGRRINPR; AchR binding peptide) [Peptide L2-47]”, the OD under setting [3] is 0.707. Under setting [3], “L2-113 (QNDKDRKLSHR; AchR binding peptide) [Peptide L2-113]” returned an OD of 0.64.

In turn, “L2-22 (MMMRHKRCQYR; AchR binding peptide) [Peptide L2-22]” had an OD under setting [3] of 0.75.

“L3-121 (CDDKPKKTVVKLTW; AchR binding peptide) [Peptide L3-121]” returned an OD under setting [1] of 0.655. Under setting [1], “L3-126 (YVDRWRRMQYKLSI; AchR binding peptide) [Peptide L3-126]” registered an OD of 0.542. The same measure, in the same setting: the same measure for “L3-167 (AMCREKRFPYRAIY; AchR binding peptide) [Peptide L3-167]”: 0.634. Take RGKRGCER [Peptide L1-54]: the OD under setting [2] was determined as 0.569.

For the substance “L3-171 (LDTKNRRGASKWDY; AchR binding peptide) [Peptide L3-171]”, under setting [1], the OD amounted to 0.629. The substance KTKKIHSK [Peptide L1-22] gave an OD under setting [2] of 0.732. “L2-55 (PACRSKRDWQK; AchR binding peptide) [Peptide L2-55]” came in with an OD under setting [3] of 0.524. For “L2-25 (RLERPRRELTK; AchR binding peptide) [Peptide L2-25]”, under setting [3], the OD amounted to 0.842. In the case of “L3-8 (PICRWKRAPFKWYF; AchR binding peptide) [Peptide L3-8]”, the OD under setting [1] is 0.777.

In turn, “L3-188 (DGIRDKKCCWRDLI; AchR binding peptide) [Peptide L3-188]” gave an OD under setting [1] of 0.738. On the same count and under the same terms, the same measure for “L3-46 (SAHKKRKQTLRCSE; AchR binding peptide) [Peptide L3-46]”: 0.618. Under setting [3], “L2-85 (VFVKWRRQMMR; AchR binding peptide) [Peptide L2-85]” gave an OD of 0.768. RFKRLCMK [Peptide L1-15] showed an OD under setting [2] of 0.67. Under setting [3], “L2-30 (PTLKWRKPVLR; AchR binding peptide) [Peptide L2-30]” yielded an OD of 0.746. “L3-85 (QLVKLRKLARRVSY; AchR binding peptide) [Peptide L3-85]”: under setting [1], the OD is reported as 0.735. “L2-101 (NGVRERKWQSK; AchR binding peptide) [Peptide L2-101]” returned an OD under setting [3] of 0.592. As for KARKQEVR [Peptide L1-188], the OD under setting [2] is given as 0.618.

For “L3-21 (NPMKLRKAETKHNV; AchR binding peptide) [Peptide L3-21]”, under setting [1], the OD worked out at 0.843. For RCKRCDNK [Peptide L1-120], the OD under setting [2] is recorded as 0.388. For the substance KNKKCVGR [Peptide L1-88], under setting [2], the OD came out at 0.562.

As for “L2-75 (YILRDKKVPLK; AchR binding peptide) [Peptide L2-75]”, the OD under setting [3] was found to be 0.539. On the same count and under the same terms, then “L2-100 (MNYRCKRVQER; AchR binding peptide) [Peptide L2-100]”, with 0.551.

In turn, “L3-47 (LYEKYKKHNNREDD; AchR binding peptide) [Peptide L3-47]” gave an OD under setting [1] of 0.558. With “L2-98 (LMLRGKRLTTK; AchR binding peptide) [Peptide L2-98]”, the OD under setting [3] is 0.626. In turn, “L3-94 (PVLKLRKGRVRAQP; AchR binding peptide) [Peptide L3-94]” came in with an OD under setting [1] of 0.61.

Under setting [2], KMRRAQGR [Peptide L1-34] gave an OD of 0.634. Same read-out and setting: the same measure for RQRKSMQR [Peptide L1-27]: 0.662.

As for “L2-48 (VSTKIKKEPQR; AchR binding peptide) [Peptide L2-48]”, the OD under setting [3] is reported as 0.629. In turn, KIKKYYWK [Peptide L1-129] displayed an OD under setting [2] of 0.421.

Turning to “L2-187 (TAAKWKKIIMK; AchR binding peptide) [Peptide L2-187]”, under setting [3], the OD came out at 0.731. Under setting [2], KERKASAK [Peptide L1-63] gave an OD of 0.618. Still for that read-out and setting: the same measure for KSKRPEGR [Peptide L1-122]: 0.352; for RSRRGIGK [Peptide L1-192]: 0.581; for KARKNSIR [Peptide L1-170]: 0.642.

Under setting [1], “L3-99 (PCWKFRRAQMKWGI; AchR binding peptide) [Peptide L3-99]” returned an OD of 0.692. The same measure, in the same setting: then “L3-96 (EWHKHRREMVRWGP; AchR binding peptide) [Peptide L3-96]”, with 0.567.

Under setting [3], “L2-88 (NAMRTKRMSFK; AchR binding peptide) [Peptide L2-88]” gave an OD of 0.744.

“L2-50 (SADRNKRHMTR; AchR binding peptide) [Peptide L2-50]” came in with an OD under setting [3] of 0.656. On the same count and under the same terms, then “L2-19 (GWNRAKREESK; AchR binding peptide) [Peptide L2-19]”, with 0.727. As to “GGGRKKRRQRRRGG [Peptide L3-201, reference compound]”, under setting [2], the OD was 0.315. Regarding “L3-133 (VDSREKKWRQKCQC; AchR binding peptide) [Peptide L3-133]”, the OD under setting [1] is on record as 0.566. As for “L2-12 (AYAKARRWGQK; AchR binding peptide) [Peptide L2-12]”, under setting [3], the OD is 0.83. “L2-97 (DVNKYRKHSHK; AchR binding peptide) [Peptide L2-97]” returned an OD under setting [3] of 0.531. RFRRGVRR [Peptide L1-13] came in with an OD under setting [2] of 0.73. “L2-84 (PWHKGKRDFDR; AchR binding peptide) [Peptide L2-84]” registered an OD under setting [3] of 0.574. Still for that read-out and setting: then “L2-158 (MMTKYKKTCCK; AchR binding peptide) [Peptide L2-158]”, with 0.73; and “L2-109 (YPTKGKRCMIR; AchR binding peptide) [Peptide L2-109]”, with 0.596. On the same count and under the same terms, the same measure for “L2-153 (GHQRGKREGSR; AchR binding peptide) [Peptide L2-153]”: 0.688. In turn, KNRRADCR [Peptide L1-140] yielded an OD under setting [2] of 0.381.

Under setting [1], “L3-33 (LRQRSKRVLEKLRP; AchR binding peptide) [Peptide L3-33]” gave an OD of 0.751. Under setting [3], “L2-152 (IALKPKRVWLK; AchR binding peptide) [Peptide L2-152]” registered an OD of 0.681. Under setting [2], RAKRMCCK [Peptide L1-8] yielded an OD of 0.653.

Turning to “L2-79 (EGAKYRRDGWR; AchR binding peptide) [Peptide L2-79]”, under setting [3], the OD was 0.689. “L3-135 (NDHRMRRSVDRGET; AchR binding peptide) [Peptide L3-135]” returned an OD under setting [1] of 0.69. RDRKNPVR [Peptide L1-124]: the OD under setting [2] worked out at 0.428.
